Earlier results in article PMC4332414.
pKd: −log10 of the molar value.

Target: Collagen type II (UniProt P02458)
Test: surface plasmon resonance

Sequence of DDR2 DS domain (Q16832 30-185): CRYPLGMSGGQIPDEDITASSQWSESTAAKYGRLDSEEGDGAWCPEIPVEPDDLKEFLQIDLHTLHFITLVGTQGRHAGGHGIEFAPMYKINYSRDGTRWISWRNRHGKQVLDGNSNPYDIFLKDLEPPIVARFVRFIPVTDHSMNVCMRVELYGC
Sequence of Collagen type II (P02458 182-1241): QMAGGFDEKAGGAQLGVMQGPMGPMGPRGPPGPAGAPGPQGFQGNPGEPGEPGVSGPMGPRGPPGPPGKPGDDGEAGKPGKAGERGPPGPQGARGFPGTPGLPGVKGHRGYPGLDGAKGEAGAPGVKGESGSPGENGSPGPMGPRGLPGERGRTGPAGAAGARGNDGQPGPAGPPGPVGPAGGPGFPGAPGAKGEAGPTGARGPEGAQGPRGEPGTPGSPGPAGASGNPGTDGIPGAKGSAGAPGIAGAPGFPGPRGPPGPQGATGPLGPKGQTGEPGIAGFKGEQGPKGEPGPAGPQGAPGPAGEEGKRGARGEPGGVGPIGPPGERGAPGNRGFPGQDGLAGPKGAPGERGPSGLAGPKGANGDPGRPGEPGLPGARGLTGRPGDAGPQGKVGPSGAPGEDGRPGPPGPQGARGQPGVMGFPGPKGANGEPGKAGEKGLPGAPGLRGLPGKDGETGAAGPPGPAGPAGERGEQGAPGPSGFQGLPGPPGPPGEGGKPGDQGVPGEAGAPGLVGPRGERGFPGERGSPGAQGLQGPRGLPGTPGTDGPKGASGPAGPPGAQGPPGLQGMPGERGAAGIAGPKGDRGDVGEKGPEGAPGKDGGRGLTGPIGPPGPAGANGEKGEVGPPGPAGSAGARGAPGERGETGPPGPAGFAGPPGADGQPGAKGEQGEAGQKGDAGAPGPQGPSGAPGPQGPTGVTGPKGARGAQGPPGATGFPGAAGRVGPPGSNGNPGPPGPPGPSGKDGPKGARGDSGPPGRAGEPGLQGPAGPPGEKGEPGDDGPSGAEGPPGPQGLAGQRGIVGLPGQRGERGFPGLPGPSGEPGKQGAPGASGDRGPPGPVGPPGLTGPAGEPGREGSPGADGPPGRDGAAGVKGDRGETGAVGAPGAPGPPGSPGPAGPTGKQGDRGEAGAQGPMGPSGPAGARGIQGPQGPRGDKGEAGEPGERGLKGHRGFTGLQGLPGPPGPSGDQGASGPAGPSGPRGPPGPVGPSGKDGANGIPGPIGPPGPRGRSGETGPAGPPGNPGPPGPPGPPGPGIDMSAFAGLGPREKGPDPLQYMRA

- pKd: 4.60
Substance: DDR2 DS domain (from UniProt Q16832)
